Here are results for five sequences from the supplement of paper PMC5998384.

For data set [1], the system named is HeLa Kyoto. In words: solubility in G1/S (NP-40 vs SDS abundance) (log2 ratio); higher = more soluble. The settings on record: cell cycle stage: G1/S.
Data set [2] relates to HeLa Kyoto. Put plainly: melting temperature (median over replicates), in situ; higher = more thermally stable.
Data set [3] deals with HeLa Kyoto. Put plainly: solubility change mitosis vs G1/S (difference of NP-40 vs SDS log2 ratios) (log2 ratio difference); higher = more soluble in mitosis.
In data set [4] the test system is HeLa Kyoto. In words: thermal stability score vs G1/S (z-score of summed log2 fold changes over temperatures); higher = more thermally stable than in G1/S.
Setting [5] is: cell cycle stage: early G1 (4.5 h after nocodazole release).
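For melting temperature (median over replicates), in situ in this document: HeLa Kyoto cells synchronized by double thymidine or nocodazole block, proteins quantified by TMT10plex mass spectrometry, three independent biological replicates.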
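For solubility change mitosis vs G1/S (difference of NP-40 vs SDS log2 ratios) in this document: synchronized HeLa Kyoto cells (double thymidine block for G1/S, nocodazole release for mitosis), protein amounts in NP-40 versus SDS lysates quantified by mass spectrometry, three biological replicates.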
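For solubility in G1/S (NP-40 vs SDS abundance) in this document: HeLa Kyoto cells arrested at G1/S by double thymidine block, proteins quantified by TMT10plex mass spectrometry in mild NP-40 versus SDS extracts, three biological replicates.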
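For thermal stability score vs G1/S (z-score of summed log2 fold changes over temperatures) in this document: synchronized HeLa Kyoto cells, proteins quantified by TMT10plex mass spectrometry, three biological replicates, mitosis taken 0.5 h after nocodazole release, G1/S directly after double thymidine block.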

For “MAEGGAADLDTQRSDIATLLKTSLRKGDTWYLVDSRWFKQWKKYVGFDSWDKYQMGDQNVYPGPIDNSGLLKDGDAQSLKEHLIDELDYILLPTEGWNKLVSWYTLMEGQEPIARKVVEQGMFVKHCKVEVYLTELKLCENGNMNNVVTRRFSKADTIDTIEKEIRKIFSIPDEKETRLWNKYMSNTFEPLNKPDSTIQDAGLYQGQVLVIEQKNEDGTWPRGPSTPKSPGASNFSTLPKISPSSLSNNYNNMNNRNVKNSNYCLPSYTAYKNYDYSEPGRNNEQPGLCGLSNLGNTCFMNSAIQCLSNTPPLTEYFLNDKYQEELNFDNPLGMRGEIAKSYAELIKQMWSGKFSYVTPRAFKTQVGRFAPQFSGYQQQDCQELLAFLLDGLHEDLNRIRKKPYIQLKDADGRPDKVVAEEAWENHLKRNDSIIVDIFHGLFKSTLVCPECAKISVTFDPFCYLTLPLPMKKERTLEVYLVRMDPLTKPMQYKVVVPKIGNILDLCTALSALSGIPADKMIVTDIYNHRFHRIFAMDENLSSIMERDDIYVFEININRTEDTEHVIIPVCLREKFRHSSYTHHTGSSLFGQPFLMAVPRNNTEDKLYNLLLLRMCRYVKISTETEETEGSLHCCKDQNINGNGPNGIHEEGSPSEMETDEPDDESSQDQELPSENENSQSEDSVGGDNDSENGLCTEDTCKGQLTGHKKRLFTFQFNNLGNTDINYIKDDTRHIRFDDRQLRLDERSFLALDWDPDLKKRYFDENAAEDFEKHESVEYKPPKKPFVKLKDCIELFTTKEKLGAEDPWYCPNCKEHQQATKKLDLWSLPPVLVVHLKRFSYSRYMRDKLDTLVDFPINDLDMSEFLINPNAGPCRYNLIAVSNHYGGMGGGHYTAFAKNKDDGKWYYFDDSSVSTASEDQIVSKAAYVLFYQRQDTFSGTGFFPLDRETKGASAATGIPLESDEDSNDNDNDIENENCMHTN [USP15]”, in data set [1], the “solubility in G1/S (log2)” value is 0.00479. The melting temperature in data set [2] (cell cycle stage: G1/S) turned out to be 49.8 °C; in data set [2] (cell cycle stage: mitosis) it was 49.9 °C. The “solubility change mitosis (log2)” value in data set [3] was -0.118. The thermal stability score in data set [4] (setting [5]) is -0.274; in data set [4] (cell cycle stage: mitosis), 0.549.
Turning to “MAEGNTLISVDYEIFGKVQGVFFRKHTQAEGKKLGLVGWVQNTDRGTVQGQLQGPISKVRHMQEWLETRGSPKSHIDKANFNNEKVILKLDYSDFQIVK [ACYP1]”, the “solubility in G1/S (log2)” value in data set [1] was 0.223. Moreover, the melting temperature in data set [2] (cell cycle stage: G1/S) stood at 52.3 °C; in data set [2] (cell cycle stage: mitosis) it was 52.7 °C. Moreover, the “solubility change mitosis (log2)” value in data set [3] was -0.0383. Moreover, the thermal stability score in data set [4] (setting [5]) is 0.389; in data set [4] (cell cycle stage: mitosis) it was -1.31.
Consider “MAEGTAEAPLENGGGGDSGAGALERGVAPIKRQYLTTKEQFHQFLEAKGQEKTCRETEVGDPAGNELAEPEAKRIRLEDGQTADGQTEEAAEPGEQLQTQKRARGQNKGRPHVKPTNYDKNRLCPSLIQESAAKCFFGDRCRFLHDVGRYLETKPADLGPRCVLFETFGRCPYGVTCRFAGAHLRPEGQNLVQEELAARGTQPPSIRNGLDKALQQQLRKREVRFERAEQALRRFSQGPTPAAAVPEGTAAEGAPRQENCGAQQVPAGPGTSTPPSSPVRTCGPLTDEDVVRLRPCEKKRLDIRGKLYLAPLTTCGNLPFRRICKRFGADVTCGEMAVCTNLLQGQMSEWALLKRHQCEDIFGVQLEGAFPDTMTKCAELLSRTVEVDFVDINVGCPIDLVYKKGGGCALMNRSTKFQQIVRGMNQVLDVPLTVKIRTGVQERVNLAHRLLPELRDWGVALVTLHGRSREQRYTKLADWQYIEECVQAASPMPLFGNGDILSFEDANRAMQTGVTGIMIARGALLKPWLFTEIKEQRHWDISSSERLDILRDFTNYGLEHWGSDTQGVEKTRRFLLEWLSFLCRYVPVGLLERLPQRINERPPYYLGRDYLETLMASQKAADWIRISEMLLGPVPPSFAFLPKHKANAYK [DUS3L]”, for which, in data set [1], the “solubility in G1/S (log2)” value is -0.0832. Besides, the melting temperature in data set [2] (cell cycle stage: G1/S) is 49 °C; in data set [2] (cell cycle stage: mitosis), 48.5 °C. Moreover, the “solubility change mitosis (log2)” value in data set [3] is -0.0331. Besides, the thermal stability score came out at 1.52 in data set [4] (setting [5]) and 2.59 in data set [4] (cell cycle stage: mitosis).
Turning to “MAEISDLDRQIEQLRRCELIKESEVKALCAKAREILVEESNVQRVDSPVTVCGDIHGQFYDLKELFRVGGDVPETNYLFMGDFVDRGFYSVETFLLLLALKVRYPDRITLIRGNHESRQITQVYGFYDECLRKYGSVTVWRYCTEIFDYLSLSAIIDGKIFCVHGGLSPSIQTLDQIRTIDRKQEVPHDGPMCDLLWSDPEDTTGWGVSPRGAGYLFGSDVVAQFNAANDIDMICRAHQLVMEGYKWHFNETVLTVWSAPNYCYRCGNVAAILELDEHLQKDFIIFEAAPQETRGIPSKKPVADYFL [PPP4C]”, the “solubility in G1/S (log2)” value in data set [1] is -0.237. Further, the results for the melting temperature in data set [2] (cell cycle stage: G1/S) and in data set [2] (cell cycle stage: mitosis) were 54.8 °C and 55.3 °C, respectively. The “solubility change mitosis (log2)” value in data set [3] is -0.0748. Besides, the values for the thermal stability score in data set [4] (setting [5]) and in data set [4] (cell cycle stage: mitosis) were 0.0354 and -1.42, respectively.
Turning to “MAEKVLVTGGAGYIGSHTVLELLEAGYLPVVIDNFHNAFRGGGSLPESLRRVQELTGRSVEFEEMDILDQGALQRLFKKYSFMAVIHFAGLKAVGESVQKPLDYYRVNLTGTIQLLEIMKAHGVKNLVFSSSATVYGNPQYLPLDEAHPTGGCTNPYGKSKFFIEEMIRDLCQADKTWNAVLLRYFNPTGAHASGCIGEDPQGIPNNLMPYVSQVAIGRREALNVFGNDYDTEDGTGVRDYIHVVDLAKGHIAALRKLKEQCGCRIYNLGTGTGYSVLQMVQAMEKASGKKIPYKVVARREGDVAACYANPSLAQEELGWTAALGLDRMCEDLWRWQKQNPSGFGTQA [GALE]”, the “solubility in G1/S (log2)” value in data set [1] came out at 0.453. Also, the melting temperature in data set [2] (cell cycle stage: G1/S) is 53.3 °C; in data set [2] (cell cycle stage: mitosis), 53.8 °C. Besides, in data set [3], the “solubility change mitosis (log2)” value is -0.146. Besides, the thermal stability score in data set [4] (setting [5]) was -3.9; in data set [4] (cell cycle stage: mitosis) it was -0.458.
